The source of these data is PMC3627603 (Nucleic Acids Research, 2013).

The labels stand for the following.
B2: GST-SIRT1 (enzyme, human, UniProt Q96EB6 1-747, looked up)
chain: MADEAALALQPGGSPSAAGADREAASSPAGEPLRKRPRRDGPGLERSPGEPGGAAPEREVPAAARGCPGAAAAALWREAEAEAAAAGGEQEAQATAAAGEGDNGPGLQGPSREPPLADNLYDEDDDDEGEEEEEAAAAAIGYRDNLLFGDEIITNGFHSCESDEEDRASHASSSDWTPRPRIGPYTFVQQHLMIGTDPRTILKDLLPETIPPPELDDMTLWQIVINILSEPPKRKKRKDINTIEDAVKLLQECKKIIVLTGAGVSVSCGIPDFRSRDGIYARLAVDFPDLPDPQAMFDIEYFRKDPRPFFKFAKEIYPGQFQPSLCHKFIALSDKEGKLLRNYTQNIDTLEQVAGIQRIIQCHGSFATASCLICKYKVDCEAVRGDIFNQVVPRCPRCPADEPLAIMKPEIVFFGENLPEQFHRAMKYDKDEVDLLIVIGSSLKVRPVALIPSSIPHEVPQILINREPLPHLHFDVELLGDCDVIINELCHRLGGEYAKLCCNPVKLSEITEKPPRTQKELAYLSELPPTPLHVSEDSSSPERTSPPDSSVIVTLLDQAAKSNDDLDVSESKGCMEEKPQEVQTSRNVESIAEQMENPDLKNVGSSTGEKNERTSVAGTVRKCWPNRVAKEQISRRLDGNQYLFLPPNRYIFHGAEVYSDSEDDVLSSSSCGSNSDSGTCQSPSLEEPMEDESEIEEFYNGLEDEPDVPERAGGAGFGTDGDDQEAINEAISVKQEVTDMNYPSNKS

The assay “GST-SIRT1” addresses B2. Briefly: pull-down.
The target of assay [1] is T1, H6-Mcm10 full length (FL), recombinant (human, UniProt Q7L590-2 1-874).
T1 sequence (looked up): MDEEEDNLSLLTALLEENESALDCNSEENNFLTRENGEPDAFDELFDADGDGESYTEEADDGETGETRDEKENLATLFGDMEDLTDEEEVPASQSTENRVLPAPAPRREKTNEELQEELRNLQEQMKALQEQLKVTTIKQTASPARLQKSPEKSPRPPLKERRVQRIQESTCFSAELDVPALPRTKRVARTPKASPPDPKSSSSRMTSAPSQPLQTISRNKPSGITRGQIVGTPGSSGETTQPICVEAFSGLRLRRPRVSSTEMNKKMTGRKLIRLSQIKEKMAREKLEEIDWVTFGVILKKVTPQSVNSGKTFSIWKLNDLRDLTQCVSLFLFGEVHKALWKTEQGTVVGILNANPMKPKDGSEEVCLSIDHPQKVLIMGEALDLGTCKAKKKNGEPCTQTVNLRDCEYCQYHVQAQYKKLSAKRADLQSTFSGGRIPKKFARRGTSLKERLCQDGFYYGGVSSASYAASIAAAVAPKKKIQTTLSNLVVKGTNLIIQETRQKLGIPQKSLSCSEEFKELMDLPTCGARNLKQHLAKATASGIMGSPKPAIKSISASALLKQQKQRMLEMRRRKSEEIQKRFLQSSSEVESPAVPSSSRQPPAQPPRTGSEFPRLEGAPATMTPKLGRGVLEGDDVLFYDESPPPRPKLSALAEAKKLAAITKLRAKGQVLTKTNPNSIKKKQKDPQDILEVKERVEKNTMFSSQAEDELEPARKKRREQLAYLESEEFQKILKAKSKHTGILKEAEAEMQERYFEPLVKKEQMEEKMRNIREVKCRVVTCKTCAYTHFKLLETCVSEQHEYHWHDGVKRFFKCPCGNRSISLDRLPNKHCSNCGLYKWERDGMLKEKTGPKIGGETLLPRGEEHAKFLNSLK
Briefly: pull-down.

B1: His-tagged Mcm10 C-terminal domain (CTD, aa 630-874) (domain or fragment, human, UniProt Q7L590-2 630-874, looked up)
chain: GVLEGDDVLFYDESPPPRPKLSALAEAKKLAAITKLRAKGQVLTKTNPNSIKKKQKDPQDILEVKERVEKNTMFSSQAEDELEPARKKRREQLAYLESEEFQKILKAKSKHTGILKEAEAEMQERYFEPLVKKEQMEEKMRNIREVKCRVVTCKTCAYTHFKLLETCVSEQHEYHWHDGVKRFFKCPCGNRSISLDRLPNKHCSNCGLYKWERDGMLKEKTGPKIGGETLLPRGEEHAKFLNSLK
On to B1, for which the binding result in the assay with GST-SIRT1 is “binds”.

On to B2, for which the binding result in assay [1] was “binds”.
